Experimental data: publication doi:10.1101/2022.06.11.495734 (bioRxiv, 2022)

What was measured:
native gel or EMSA = target: the molecule itself; test: native gel or EMSA
non-reducing SDS-PAGE = target: the molecule itself; test: non-reducing SDS-PAGE
[1] = target: the molecule itself; test: SDS-PAGE after LAFS treatment
[2] = target: the molecule itself; test: reducing SDS-PAGE and immunoblot of parasite lysate

B1: recombinant Plasmodium falciparum 3D7 60S stalk ribosomal protein P2, 6x His-tag (natural protein, UniProt O00806 1-112, looked up)
chain: MAMKYVAAYLMCVLGGNENPSTKEVKNVLGAVNADVEDEVLNNFIDSLKGKSCHELITDGLKKLQNIGGGVAAAPAGAAAVETAEAKKEDKKEEKKEEEEEEEDDLGFSLFG
stoichiometry N (native gel or EMSA): 4
stoichiometry N (non-reducing SDS-PAGE): 2

B2: rec.PfP2 pre-reduced and alkylated with iodoacetamide (natural protein, Plasmodium falciparum 3D7, UniProt O00806 1-112, looked up)
chain: MAMKYVAAYLMCVLGGNENPSTKEVKNVLGAVNADVEDEVLNNFIDSLKGKSCHELITDGLKKLQNIGGGVAAAPAGAAAVETAEAKKEDKKEEKKEEEEEEEDDLGFSLFG
modifications: all cysteine residues pre-reduced and alkylated with Iodoacetamide (IAA)
stoichiometry N [1]: 4

B3: Plasmodium falciparum P2 protein, endogenous in wild type 3D7 parasites (natural protein, UniProt O00806 1-112, looked up)
chain: MAMKYVAAYLMCVLGGNENPSTKEVKNVLGAVNADVEDEVLNNFIDSLKGKSCHELITDGLKKLQNIGGGVAAAPAGAAAVETAEAKKEDKKEEKKEEEEEEEDDLGFSLFG
stoichiometry N [2]: 4

B4: PfP2-HA of transgenic P. falciparum 3D7 parasites (natural protein, Plasmodium falciparum 3D7, UniProt O00806 1-112, looked up)
chain: MAMKYVAAYLMCVLGGNENPSTKEVKNVLGAVNADVEDEVLNNFIDSLKGKSCHELITDGLKKLQNIGGGVAAAPAGAAAVETAEAKKEDKKEEKKEEEEEEEDDLGFSLFG
stoichiometry N [2]: 4
